Laboratory results published in US20050148763A1, “Peg-binding pth or peg-binding pth derivative” (Chugai Seiyaku Kabushiki Kaisha, priority 2002, published 2005).

Legend:
Format in all cases: in vivo
[1] = Pharmacokinetics in rats by intravenous route; conditions: 80 μg/mL at 1 mL/kg
Procedure: (§1) Each sample was adjusted to 80 μg/mL by dilution with 25 mmol/L citrate-phosphate buffer (pH 5.0) containing 100 mmol/L NaCl and 0.05 vol % Tween 20 to give a solution for administration. Male SD rats at 6 weeks of age (CLEA Japan, Inc.) were provided for this experiment. Intravenous injection was performed on rats having polyethylene tubes (SP-31, Natsume Seisakusho Co., Ltd.) inserted into the femoral artery and vein. The solutions thus prepared were each administered at a dose of 1 mL/kg through a polyethylene tube inserted into the femoral vein, and blood was collected through a polyethylene tube inserted into the femoral artery before administration and at 5, 15, 30 and 45 minutes as well as 1, 2, 4, 6, 8 and 24 hours after administration. Subcutaneous administration was performed on rats having polyethylene tubes inserted into the femoral artery. The solutions prepared above were each subcutaneously administered at a dose of 1 mL/kg to the dorsal neck region of the rats, and blood was collected in the same manner as used for intravenous injection. These blood samples were centrifuged to collect plasma and stored at −40° C. until assayed for PTH(1-34) or PEG-PTH(1-34) levels.
(§2) The level of PTH(1-34) or PEG-PTH(1-34) was determined by RIA analysis using a Rat PTH IRMA Kit (Immutopics). A Cobra Quantum Model 5005 gamma counter (Packard) was used to measure radioactivity for each sample. The plasma level of PTH(1-34) or PEG-PTH(1-34) was calculated from a calibration curve prepared using PTH(1-34) or PEG-PTH(1-34). The Winnonlin program Ver. 2.1 (Scientific Consulting Inc.) was used to analyze the time course of changes in the calculated plasma PTH(1-34) or PEG-PTH(1-34) levels (FIG. 3: by intravenous route; FIG. 4: by subcutaneous route) to calculate the following as pharmacokinetic parameters: time required to reach the maximum plasma level (Tmax); maximum plasma level (Cmax); area under the curve of plasma levels (AUC); plasma half-life (t1/2); total body clearance (Cltotal); mean residence time in the body (MRT); and bioavailability (BA). […]

[2] = Pharmacokinetics and bioavailability in rats by subcutaneous route; conditions: for BA: subcutaneous route; for AUC / MRT / Tmax / t ½: subcutaneous, 80 μg/mL at 1 mL/kg
Procedure: as §1, §2

[3] = Hypercalcemic effect of PEG-PTH(1-34) in normal male BDF1 mice; conditions: for time of maximum increase in blood ionized calcium levels after administration: sc, hPTH(1-34) 50-500 nmol/kg, PEG-PTHs 150 nmol/kg
Procedure: (§3) 2 k and 5 k PEG-PTH(1-34) were also adjusted similarly to 30 nmol/mL (calculated as PTH) and allowed to stand on ice immediately before administration.
(§4) Male BDF1 mice at 5 weeks of age (Charles River Japan, Inc.) were measured for their body weight. Immediately before drug administration, blood was collected by orbital puncture into heparinized capillary tubes and measured for baseline levels of blood ionized calcium and pH using a Ca^2+/pH analyzer (Model 348/Bayer Medical Ltd.) to give the corrected level of ionized calcium at pH 7.4 for each sample. The mice received subcutaneous administration of each drug at a dose of 5 mL/kg. […] At 1, 3 and 6 hours after administration, blood was collected by orbital puncture to monitor the time course of corrected blood ionized calcium levels.

[4] = Hypercalcemic effect of PEG-PTH(1-34) in normal female DDY mice
Procedure: as §3, §4
The same experiment was repeated on female DDY mice at 5 weeks of age (Charles River Japan, Inc.). The mice received subcutaneous administration of each drug at a dose of 5 mL/kg. […] At 1, 3 and 6 hours after administration, blood was collected by orbital puncture to monitor the time course of corrected blood ionized calcium levels.

[5] = Hypotensive effect in anesthetized rats; conditions: sc
Procedure: The mono-methoxy 5 k PEG-PTH(1-34) prepared in Example 1(2) was also adjusted similarly to 36.5, 18.3 and 9.1 μg/mL (calculated as PTH(1-34)). The samples thus prepared were then stored on ice and restored to room temperature about 30 minutes before administration.
Female SD rats at 10 weeks of age (Charles River Japan, Inc.) were anesthetized by intraperitoneal administration of 50 mg/kg pentobarbital sodium (Abbott Laboratories). A catheter for blood pressure measurement and a catheter for anesthesia maintenance were inserted into the femoral artery and vein, respectively, of each rat. Anesthesia was maintained using a syringe pump (Terumo Corporation) to ensure continuous injection (at 22.5 mg/kg/hour) of pentobarbital sodium (powder form, Tokyo Kasei Kogyo Co., Ltd.) dissolved in physiological saline (Otsuka Pharmaceutical Co., Ltd.). On the other hand, each catheter for blood pressure measurement was filled with 100 U/mL heparin sodium (Novo Nordisk A/S) in physiological saline. To measure systemic blood pressure, a pressure transducer (Nihon Kohden Corporation) was connected to the catheter for blood pressure measurement and signals from the transducer were input to a blood pressure amplifier (Nihon Kohden Corporation). The resulting data were averaged for use as an indicator of systemic blood pressure. The output of systemic blood pressure was, in turn, input to a measuring unit for instantaneous heart rate (Nihon Kohden Corporation) to determine heart rate. These parameters were continuously recorded on a thermal pen recorder (Graphtec Corporation) at a speed of 5 mm/min. After surgery, an injection needle for administration of a test substance was inserted into the dorsal subcutaneous region of each rat. After each parameter had stabilized, test drugs were administered. […] This figure illustrates changes in blood pressure induced by administration of a negative control (buffer), 50 μg/kg hPTH (1-34) and 36.5 μg/kg 5 k PEG-PTH(1-34) in this order from the upper panel. In addition, the average value of blood pressure before PTH administration and the value at the maximum blood pressure drop after administration were measured for each case to determine the difference between these two values. […] The vertical axis represents the maximum blood pressure drop (mmHg) and the horizontal axis represents the amount of PTH administered.

| Substance | AUC [1] | Cltotal [1] | MRT [1] | t ½ [1] | BA ([2]; listed as 2 k PEG-PTH (1-34)) | BA ([2]; listed as 2 k PEG-PTH(1-34)) | AUC [2] | MRT [2] | Tmax [2] | t ½ [2] | increase in blood ionized calcium levels (in words) ([3]; 150 nmol/kg sc) | increased blood ionized calcium level maintained until ([3]; 150 nmol/kg sc) | time of maximum increase in blood ionized calcium levels after administration [3] | BA [2] | increase in blood ionized calcium levels (in words) ([4]; 150 nmol/kg sc) | time of maximum increase in blood ionized calcium levels after administration ([4]; sc, hPTH(1-34) 50-500 nmol/kg, 5 k PEG-PTH(1-34) 150 nmol/kg) | hypotensive effect after administration (in words) ([5]; anesthetized female SD rats) | hypotensive effect over doses, maximum blood pressure drop (in words) ([5]; anesthetized rats, hPTH(1-34) 12.5-50 μg/kg, 5 k PEG-PTH(1-34) 9.1-36.5 μg/kg) |
| --- | --- | --- | --- | --- | --- | --- | --- | --- | --- | --- | --- | --- | --- | --- | --- | --- | --- | --- |
| 2k PEG-hPTH(1-34): hPTH(1-34) reacted with mPEG 2 k-SPA, fraction having one 2 kDa PEG molecule per PTH molecule | 95.781 ng·h/mL | 14.03 mL/min/kg | 0.465 h | 1.128 h | 56.1% | about 56.1% | 53.78 ng·h/mL | 1.684 h | 0.300 h | 1.231 h | almost the same increase in ionized calcium levels as observed with 500 nmol/kg hPTH(1-34) | 3 h | one |  |  |  |  |  |
| 5k PEG-hPTH(1-34): hPTH(1-34) reacted with mPEG 5 k-SPA, fraction having one 5 kDa PEG molecule per PTH molecule | 178.547 ng·h/mL | 7.49 mL/min/kg | 2.578 h | 5.706 h |  |  | 126.793 ng·h/mL | 5.706 h | 0.813 h | 6.758 h | gradual increase in blood ionized calcium levels to reach the same maximum value as observed with hPTH(1-34) |  | 3 h | ~71.0% | gradual increase in blood ionized calcium levels to reach the same maximum value as observed with 500 nmol/kg hPTH(1-34) | 3 h | mild hypotensive effect after administration | much weaker effect than hPTH(1-34) when administered at a higher dose |
